B1: Histidine kinase 1 (Arabidopsis thaliana (Mouse-ear cress)), Q9SXL4 (parent)
chain: MRGDSFSMSIENLPDSPMGSRKKKMQIRKVFDKMTEWVTPWRSNLESPREMMILRGDVEQDEFQYASSHCLSSYYSVFVVRLAIMVMLAILIGLLTVLTWHFTRIYTKQSLQTLAYGLRYELLQRPVLRMWSVLNTTSELTTAQVKLSEYVIKKYDKPTTQEELVEMYQAMKDVTWALFASAKALNAITINYRNGFVQAFHRDPASSSTFYIFSDLKNYSISGTGPEDVSGWNNKSIHGNMSAIWYQQQLDPVTGENLGKPLKIPPDDLINIAGISQVPDGEASWHVTVSKYMDSPLLSAALPVFDASNKSIVAVVGVTTALYSVGQLMRDLVEVHGGHIYLTSQEGYLLATSTDGPLLKNTSNGPQLMKATDSEEWVIKSGAQWLEKTYGSKRPHVVHAENVKLGDQRYYIDSFYLNLKRLPIVGVVIIPRKFIMGKVDERAFKTLIILISASVCIFFIGCVCILILTNGVSKEMKLRAELIRQLDARRRAEASSNYKSQFLANMSHELRTPMAAVIGLLDILISDDCLSNEQYATVTQIRKCSTALLRLLNNILDLSKVESGKLVLEEAEFDLGRELEGLVDMFSVQCINHNVETVLDLSDDMPALVRGDSARLVQIFANLISNSIKFTTTGHIILRGWCENINSLHDEMSVSVDRRKPWAPMKTKQVQHRNHLQKSCKNANKMVLWFEVDDTGCGIDPSKWDSVFESFEQADPSTTRTHGGTGLGLCIVRNLVNKMGGEIKVVQKNGLGTLMRLYLILSTPDTVDQNIQPDFSKYGLVVMLSMYGSTARMITSKWLRKHGIATVEASDWNELTQIIRDLLETGSRDNSFDSQHNISDPLRAELSNIVEIKNPVFVIVVDIGVLDLTTNIWKEQLNYLDRFSNKAKFAWLLKHDTSNTVKTELRRKGHVMMVNKPLYKAKMIQILEAVIKNRKRGLCNDLRNRGNGSDESHDCLEIDPTQFDTCSSDDSSETSGEKQVDKSVKPSTLHSPVLKNYLIDATTSNDDSTSASMTQKNPEEEDWKDRLYSGIALDGKNQKSLEGIRILLAEDTPVLQRVATIMLEKMGATVTAVWDGQQAVDSLNYKSINAQAPTEEHKSFEEETANKVTTRETSLRNSSPYDLILMDCQMPKMDGYEATKAIRRAEIGTELHIPIVALTAHAMSSDEAKCLEVGMDAYLTKPIDRKLMVSTILSLTKPSAFQTSLSA
partner: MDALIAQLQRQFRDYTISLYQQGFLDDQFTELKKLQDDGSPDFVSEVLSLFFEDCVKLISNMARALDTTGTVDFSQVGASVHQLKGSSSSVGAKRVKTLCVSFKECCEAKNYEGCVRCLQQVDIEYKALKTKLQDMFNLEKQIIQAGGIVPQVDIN

Variants of: B1
Details: with ahp2_arath AHP2, Q9ZNV8

| Variant | effect of a mutation on the interaction |
| --- | --- |
| D1075E | disrupting interaction |
